“Also recorded” adds a separate entry of the source. Blank lines part the entries; values can stand above or below the molecule they belong to.
Columns and labels:
Assay type in all cases: biochemical
[1] = biological target: T1, p105 (Homo sapiens, UniProt P19838); test: Competition by synthetic KPC1-derived peptides of p105 ubiquitination by KPC1-Δ1-967 in reconstituted cell-free system; details: compared to 6 amino acids ILVRLW peptide
T1 sequence (P19838 1-968): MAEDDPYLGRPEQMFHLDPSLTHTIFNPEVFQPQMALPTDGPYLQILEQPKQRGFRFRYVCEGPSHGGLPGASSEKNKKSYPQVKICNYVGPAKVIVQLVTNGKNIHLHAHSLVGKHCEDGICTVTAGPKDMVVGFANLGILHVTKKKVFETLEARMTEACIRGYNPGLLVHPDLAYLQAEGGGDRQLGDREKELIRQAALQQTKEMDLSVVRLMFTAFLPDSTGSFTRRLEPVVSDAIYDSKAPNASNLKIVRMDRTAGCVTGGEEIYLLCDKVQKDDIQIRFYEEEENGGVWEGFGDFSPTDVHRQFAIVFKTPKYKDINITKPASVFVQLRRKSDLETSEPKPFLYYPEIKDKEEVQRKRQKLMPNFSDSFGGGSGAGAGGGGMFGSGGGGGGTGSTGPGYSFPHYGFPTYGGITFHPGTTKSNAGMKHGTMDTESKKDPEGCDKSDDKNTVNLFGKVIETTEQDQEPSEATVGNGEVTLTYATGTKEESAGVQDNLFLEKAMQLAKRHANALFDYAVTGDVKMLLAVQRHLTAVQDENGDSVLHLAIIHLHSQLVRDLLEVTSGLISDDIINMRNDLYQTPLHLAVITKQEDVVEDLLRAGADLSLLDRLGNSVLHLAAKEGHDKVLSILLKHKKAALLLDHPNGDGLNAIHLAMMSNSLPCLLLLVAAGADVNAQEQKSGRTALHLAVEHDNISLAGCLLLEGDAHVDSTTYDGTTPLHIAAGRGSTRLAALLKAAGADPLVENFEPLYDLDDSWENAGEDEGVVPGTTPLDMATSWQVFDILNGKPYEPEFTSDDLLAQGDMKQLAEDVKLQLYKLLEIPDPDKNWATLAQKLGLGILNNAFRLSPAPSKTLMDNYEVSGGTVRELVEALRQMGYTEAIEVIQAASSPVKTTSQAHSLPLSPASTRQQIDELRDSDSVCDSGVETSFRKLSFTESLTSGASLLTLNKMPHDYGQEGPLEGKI
From the text: Presented is the change (in %) of unconjugated p105 remained following addition of increasing concentrations of the peptides (compared to a system to which a peptide was not added; lane 3). Amid denotes N-terminal amidation and Ac denotes C-terminal acetylation.
Presented is the change (in %) of unconjugated p105 remained following addition of increasing concentrations of the peptides (compared to a system to which a peptide was not added; lane 2).
To further confirm that 7 amino acids WILVRLW of KPC1-Δ1-967 (SEQ ID. No. 5) are involved in the interaction with p105, an experiment was designed in which the binding of p105 to the ligase was competed with a synthetic peptides derived from KPC1.

[2] = biological target: T1, p105; test: Ubiquitination of p105 by purified KPC1 species in cell-free conjugation assay; details: reconstituted cell-free system, in vitro translated 35S-labeled p105, purified Ub, E1, E2, UbAl, ATP
From the text: FIGS. 4A and 4B represent western blots showing in vitro ubiquitination of p105 by mutated species of KPC1: FIG. 4A: In vitro translated and ^35S-labeled p105 was ubiquitinated by purified KPC1-Δ1-967-6xHIS (lanes 2-4) or KPC1-Δ1-974-6xHIS (lanes 5-7) in a reconstituted cell-free system. 4B) In vitro translated and ^355-labeled p105 was ubiquitinated by purified KPC1-Δ1-967-6xHIS (lanes 2,5,6), KPC1-Δ1-974-6xHIS (lane 3), KPC1-Δ967-1043-6xHIS (lane 4), WILVRLW-KPC1-Δ1-1039-6xHIS (lanes 7-8) or WILVRLW-KPC1-Δ1-1061-6xHIS (lanes 9-10) in a reconstituted cell-free system.
In order to assess if the interaction between two proteins leads to the conjugation of the substrate p105, ubiquitination reaction was performed in cell free system. The conjugation reaction was carried out in the presence of purified Ub, E1, E2, UbAl, ATP and KPC1—either wild-type or different mutant species. Samples were resolved via SDS-PAGE and the 35S-labeled p105 and its adducts were visualized using autoradiography. […] In addition, the shorter versions of KPC1 in which the 7 amino acids sequence were brought closer to RING domain, the active site of the enzyme were prepared. Both truncated KPC1 proteins that harbor the 7 amino acid sequence, WILVRLW-KPC1-Δ1-1039 (SEQ ID. No. 6) and WILVRLW-KPC1-Δ1-1061 (SEQ ID. No. 7), modified p105 (FIG. 4B, lanes 7-10).

[3] = biological target: T1, p105; test: Processing of p105 by purified proteasome in cell free system in presence of KPC1 deleted species; details: 35S-labeled p105 (FIG. 7)
From the text: In vitro translated and ^355-labeled p105 was processed by purified proteasome (lanes 2-7) in the presence of purified KPC1-Δ1-967-6xHIS (lanes 4-5) or KPC1-Δ1-974-6xHIS (lanes 6-7) as indicated. Lane 8 represents processing of p105 in the system that contained Fraction 2. Cell extract is fractionated over the anion-exchange resin diethylaminoethyl (DEAE)-cellulose, where ubiquitin is eluted in Fraction I, the unabsorbed, flow-through material that contains also certain E2 enzymes. Fraction II, the high salt eluate, contains E1, the remaining E2s, all the E3s, and the 26S proteasome, but not free ubiquitin. Processing is the amount of p50 produced in the reaction. All values relate to 100%, which is the set point for processing of p105 in a system that lacks proteasome and KPC1 (lane 1).

Molecule: WILVRLW [synthetic 7 amino acids peptide, positions 968-974 of KPC1]
- inhibition of ubiquitination of p105 by KPC1-Δ1-967 ([1]; non-modified peptides (FIG. 6)): inhibited ubiquitination of p105 by KPC1-Δ1-967; also recorded: inhibits ubiquitination of p105
- inhibition of ubiquitination of p105 by KPC1-Δ1-967 ([1]; peptides modified by N-terminal amidation and C-terminal acetylation (FIG. 5)): inhibited ubiquitination of p105 by KPC1-Δ1-967; also recorded: inhibits ubiquitination of p105

- ubiquitination of p105 [2]: modified p105
B1: WILVRLW-KPC1-Δ1-1061: truncated KPC1 with the 7 amino acid sequence brought closer to RING domain, SEQ ID NO: 7 (protein)
chain: WILVRLWFVDSRQLKVCATCFDLSVSLLRVLEMTITLVPEIFLDWTRPTSEMLLRRLAQLLNQVLNRVTAERNLFDRVVTLRLPGLESVDHYPILVAVTGILVQLLVRGPASEREQATSVLLADPCFQLRSICYLLGQPEPPAPGTALPAPDRKRFSLQSYADYISADELAQVEQMLAHLTSASAQAAAASLPTSEEDLCPICYAHPISAVFQPCGHKSCKACINQHLMNNKDCFFCKTTIVSVEDWEKGANTSTTSSAA

- processing of p105 by purified proteasome [3]: could not stimulate processing
B2: KPC1-Δ1-974-6xHIS: purified 6xHIS KPC1 deleted species lacking the 7 amino acids responsible for binding to p105 (protein)
chain: RGCGFGYRYTRLPHLLKTKLEDANLPSLQKPCPSTLLQQHMADLLQQGPDVAPSFLNSVLNQLNWAFSEFIGMIQEIQQAAERLERNFVDSRQLKVCATCFDLSVSLLRVLEMTITLVPEIFLDWTRPTSEMLLRRLAQLLNQVLNRVTAERNLFDRVVTLRLPGLESVDHYPILVAVTGILVQLLVRGPASEREQATSVLLADPCFQLRSICYLLGQPEPPAPGTALPAPDRKRFSLQSYADYISADELAQVEQMLAHLTSASAQAAAASLPTSEEDLCPICYAHPISAVFQPCGHKSCKACINQHLMNNKDCFFCKTTIVSVEDWEKGANTSTTSSAA
modifications: left off: small tags and cut ends

B3: KPC1-Δ1-967-6xHIS: purified 6xHIS KPC1 deleted species that has the sequence of WILVRLW (protein)
chain: WILVRLWRGCGFGYRYTRLPHLLKTKLEDANLPSLQKPCPSTLLQQHMADLLQQGPDVAPSFLNSVLNQLNWAFSEFIGMIQEIQQAAERLERNFVDSRQLKVCATCFDLSVSLLRVLEMTITLVPEIFLDWTRPTSEMLLRRLAQLLNQVLNRVTAERNLFDRVVTLRLPGLESVDHYPILVAVTGILVQLLVRGPASEREQATSVLLADPCFQLRSICYLLGQPEPPAPGTALPAPDRKRFSLQSYADYISADELAQVEQMLAHLTSASAQAAAASLPTSEEDLCPICYAHPISAVFQPCGHKSCKACINQHLMNNKDCFFCKTTIVSVEDWEKGANTSTTSSAA
modifications: left off: small tags and cut ends
- processing of p105 by purified proteasome [3]: stimulates the processing of p105 by purified proteasome
